The values below come from publication PMC4259466.

For one assay, the target named is ROCK2 (UniProt O75116). The experiment in a line: GST-MLC2 pull-down from HeLa lysate. As to conditions: sites Y118.
The target in the next assay is MLC2 (UniProt P10916). In words: His-PKM2 bead pull-down of GST-MLC2. As to conditions: reference: WT His-PKM2 without Aurora B; sites T45.

Turning to “MLC2 (from UniProt P10916) GST-MLC2 Y118F”, the “binding against the reference” value in the assay with ROCK2 (reference: GST-MLC2 wild type) is listed as “lost”.
Take “MLC2 (from UniProt P10916) GST-MLC2 with PKM2 and PEP”: the “binding against the reference” value with ROCK2 (reference: GST-MLC2 with PKM2, no PEP) is reported as “stronger”.
With “PKM2 (from UniProt P14618) WT His-PKM2 treated with Aurora B”, the “binding against the reference” value with MLC2 is on record as “stronger”.
